Test results as given in the PETadex activity labels (doi:10.1073/pnas.2006753117).

Substrate: MHET
Assay: Proxy for plastic degradation [kcat] (s⁻¹)
Conditions: pH 7.5

Row | Protein | Proxy for plastic degradation
1 | unnamed (protein) MFVRNADRAKNCMRAPLRVFPLKDTFSAQCANVSVWITSSVPPLRERHMDRRVTRRDLMQTRILLMLIAATGVAACGGDGGSTPAAQNPPLPLASRAACEAFQGNSNSIAWPHRATVVEVATWHEAEPANATAAATPEHCEISGAIARRTGIDGYPYEIKFRLRMPSEWNGRFFMEGGGGTNGSLSAATGSLGGGQTASALSRNFATIATDGGHDNAVNNNPDALGTVAFGMDPQARIDMGYNSYDQVTQAGKAAVAQFYGRAPDKSYFIGCSEGGREGMMLSQRFPSHYDGIVAGAPGYQLPKAGISGAWTTQSLAPAAVGVDAQNVPLINKAFSDVDLHLLSRGILGTCDALDGLSDGIVNDFRACQAAFDPATALNPDTSQPLQCTGAKTPDCLSAAQVTGIKRAMGGPVDSAGAALYNRWAWDPGMSGLNGTSYNQGWRSWWLGSYASSTNNAQRVNGFSARSWLVDFATPPEPMPVTQVAARMMNFNFDTDPPKIRATSGPFTPSSMEWHGATSTNLAAFRDRGGKLMLYHGMSDAAFSALDTADYYERLGAAMPGAAGFARLFLVPGMNHCSGGPGTDRFDMLTPLVAWVERDKAPDQVSAWAGTPGYFGATARTRPLCPYPQIARYKGSGDINAEASFVCVAP | 9.5
2 | unnamed (protein) MQTTVTTMLLASVALAACAGGGSTPLPLPQQQPPQQEPPPPPVPLASRAACEALKDGNGDMVWPNAATVVEVAAWRDAAPATASAAALPEHCEVSGAIAKRTGIDGYPYEIKFRLRMPAEWNGRFFMEGGSGTNGSLSAATGSIGGGQIASALSRNFATIATDGGHDNAVNDNPDALGTVAFGLDPQARLDMGYNSYDQVTQAGKAAVARFYGRAADKSYFIGWSEGGREGMMLSQRFPSHYDGIVAGAPWDSSTNFDLAAFRDRGGKMILYHGMSDAAFSALDTADYYERLGAAMPGAAGFARLFLVPGMNHSSGGPGTDRFDMLTPLVAWVERGEAPDQISAWSGTPGYFGVAARTRPLCPYPQIARYKGSGDINTEANFACAAPP | 0.1
3 | unnamed (protein) MQTTVTTMLLASVALAACAGGGSTPLPLPQQQPPQQEPPPPPVPLASRAACEALKDGNGDMVWPNAATVVEVAAWRDAAPATASAAALPEHCEVSGAIAKRTGIDGYPYEIKFRLRMPAEWNGRFFMEGGSGTNGSLSAATGSIGGGQIASALSRNFATIATDGGHDNAVNDNPDALGTVAFGLDPQARLDMGYNSYDQVTQAGKAAVARFYGRAADKSYFIGCSEGGREGMMLSQRFPSHYDGIVAGAPWDSSTNFDLAAFRDRGGKMILYHGMSDAAFSALDTADYYERLGAAMPGAAGFARLFLVPGMNHCSGGPGTDRFDMLTPLVAWVERGEAPDQISAWSGTPGYFGVAARTRPLCPYPQIARYKGSGDINTEANFACAAPP | 0.05
4 | unnamed (protein) MQTTVTTMLLASVALAACAGGGSTPLPLPQQQPPQQEPPPPPVPLASRAACEALKDGNGDMVWPNAATVVEVAAWRDAAPATASAAALPEHCEVSGAIAKRTGIDGYPYEIKFRLRMPAEWNGRFFMEGGSGTNGSLSAATGSIGGGQIASALSRNFATIATDGGHDNAVNDNPDALGTVAFGLDPQARLDMGYNSYDQVTQAGKAAVARFYGRAADKSYFIGHSEGGREGMMLSQRFPSHYDGIVAGAPWDSSTNFDLAAFRDRGGKMILYHGMSDAAFSALDTADYYERLGAAMPGAAGFARLFLVPGMNHFSGGPGTDRFDMLTPLVAWVERGEAPDQISAWSGTPGYFGVAARTRPLCPYPQIARYKGSGDINTEANFACAAPP | 0.06
5 | unnamed (protein) MQTTVTTMLLASVALAACAGGGSTPLPLPQQQPPQQEPPPPPVPLASRAACEALKDGNGDMVWPNAATVVEVAAWRDAAPATASAAALPEHCEVSGAIAKRTGIDGYPYEIKFRLRMPAEWNGRFFMEGGGGTNGSLSAATGSIGGGQIASALSRNFATIATDGGHDNAVNDNPDALGTVAFGLDPQARLDMGYNSYDQVTQAGKAAVARFYGRAADKSYFIGCSEGGREGMMLSQRFPSHYDGIVAGAPGYQLPKAGISGAWTTQSLAPAAVGLDAQGVPLINKSFSDADLHLLSQAILGTCDALDGLADGIVDNYRACQAAFDPATAANPANGQALQCVGAKTADCLSPVQVTAIKRAMAGPVNSAGTPLYNRWAWDAGMSGLSGTTYNQGWRSWWLGSFNSSANNAQRVSGFSARSWLVDFATPPEPMPMTQVAARMMKFDFDIDPLKIWATSGQFTQSSMDWHGATSTDLAAFRDRGGKMILYHGMSDAAFSALDTADYYERLGAAMPGAAGFARLFLVPGMNHCSGGPGTDRFDMLTPLVAWVERGEAPDQISAWSGTPGYFGVAARTRPLCPYPQIARYKGSGDINTEANFACAAPP | 11
6 | unnamed (protein) MQTTVTTMLLASVALAACAGGGSTPLPLPQQQPPQQEPPPPPVPLASRAACEALKDGNGDMVWPNAATVVEVAAWRDAAPATASAAALPEHCEVSGAIAKRTGIDGYPYEIKFRLRMPAEWNGRFFMEGGSGTNGSLSAATGSIGGGQIASALSRNFATIATDGGHDNAVNDNPDALGTVAFGLDPQARLDMGYNSYDQVTQAGKAAVARFYGRAADKSYFIGCAEGGREGMMLSQRFPSHYDGIVAGAPGYQLPKAGISGAWTTQSLAPAAVGLDAQGVPLINKSFSDADLHLLSQAILGTCDALDGLADGIVDNYRACQAAFDPATAANPANGQALQCVGAKTADCLSPVQVTAIKRAMAGPVNSAGTPLYNRWAWDAGMSGLSGTTYNQGWRSWWLGSFNSSANNAQRVSGFSARSWLVDFATPPEPMPMTQVAARMMKFDFDIDPLKIWATSGQFTQSSMDWHGATSTDLAAFRDRGGKMILYHGMSDAAFSALDTADYYERLGAAMPGAAGFARLFLVPGMNHCSGGPGTDRFDMLTPLVAWVERGEAPDQISAWSGTPGYFGVAARTRPLCPYPQIARYKGSGDINTEANFACAAPP | 0
7 | unnamed (protein) MQTTVTTMLLASVALAACAGGGSTPLPLPQQQPPQQEPPPPPVPLASRAACEALKDGNGDMVWPNAATVVEVAAWRDAAPATASAAALPEHCEVSGAIAKRTGIDGYPYEIKFRLRMPAEWNGRFFMEGGSGTNGSLSAATGSIGGGQIASALSRNFATIATDGGHDNAVNDNPDALGTVAFGLDPQARLDMGYNSYDQVTQAGKAAVARFYGRAADKSYFIGCSEGGREGMMLSQRFPSHYDGIVAGAPGYQLPKAGISGAWTTQSLAPAAVGLDAQGVPLINKSFSDADLHLLSQAILGTCDALDGLADGIVDNYRACQAAFDPATAANPANGQALQCVGAKTADCLSPVQVTAIKRAMAGPVNSAGTPLYNRWAWDAGMSGLSGTTYNQGWRSWWLGSFNSSANNAQRVSGFSARSWLVDFATPPEPMPMTQVAARMMKFDFDIDPLKIWATSGQFTQSSMDWHGATSTDLAAFRDRGGKMILYHGMSDAAISALDTADYYERLGAAMPGAAGFARLFLVPGMNHCSGGPGTDRFDMLTPLVAWVERGEAPDQISAWSGTPGYFGVAARTRPLCPYPQIARYKGSGDINTEANFACAAPP | 1.3
8 | unnamed (protein) MQTTVTTMLLASVALAACAGGGSTPLPLPQQQPPQQEPPPPPVPLASRAACEALKDGNGDMVWPNAATVVEVAAWRDAAPATASAAALPEHCEVSGAIAKRTGIDGYPYEIKFRLRMPAEWNGRFFMEGGSGTNGSLSAATGSIGGGQIASALSRNFATIATDGGHDNAVNDNPDALGTVAFGLDPQARLDMGYNSYDQVTQAGKAAVARFYGRAADKSYFIGCSTGGREGMMLSQRFPSHYDGIVAGAPGYQLPKAGISGAWTTQSLAPAAVGLDAQGVPLINKSFSDADLHLLSQAILGTCDALDGLADGIVDNYRACQAAFDPATAANPANGQALQCVGAKTADCLSPVQVTAIKRAMAGPVNSAGTPLYNRWAWDAGMSGLSGTTYNQGWRSWWLGSFNSSANNAQRVSGFSARSWLVDFATPPEPMPMTQVAARMMKFDFDIDPLKIWATSGQFTQSSMDWHGATSTDLAAFRDRGGKMILYHGMSDAAFSALDTADYYERLGAAMPGAAGFARLFLVPGMNHCSGGPGTDRFDMLTPLVAWVERGEAPDQISAWSGTPGYFGVAARTRPLCPYPQIARYKGSGDINTEANFACAAPP | 14
9 | unnamed (protein) MNFPRASRLMQAAVLGGLMAVSAAATAQTNPYARGPNPTAASLEASAGPFTVRSFTVSRPSGYGAGTVYYPTNAGGTVGAIAIVPGYTARQSSIKWWGPRLASHGFVVITIDTNSTLDQPSSRSSQQMAALRQVASLNGTSSSPIYGKVDTARMGVMGWSMGGGGSLISAANNPSLKAAAPQAPGYQLPKAGISGAWTTQSLAPAAVGLDAQGVPLINKSFSDADLHLLSQAILGTCDALDGLADGIVDNYRACQAAFDPATAANPANGQALQCVGAKTADCLSPVQVTAIKRAMAGPVNSAGTPLYNRWAWDAGMSGLSGTTYNQGWRSWWLGSFNSSANNAQRVSGFSARSWLVDFATPPEPMPMTQVAARMMKFDFDIDPLKIWATSGQFTQSSMDWHGATSTSSVTVPTLIFACENDSIAPVNSSALPIYDSMSRNAKQFLEINGGSHSCANSGNSNQALIGKKGVAWMKRFMDNDTRYSTFACENPNSTRVSDFRTANCS | 0.11
10 | unnamed (protein) MQTTVTTMLLASVALAACAGGGSTPLPLPQQQPPQQEPPPPPVPLASRAACEALKDGNGDMVWPNAATVVEVAAYVPAGVNISMADNPSICGGDEDPITSTFAFCEVSGAIAKRTGIDGYPYEIKFRLRMPAEWNGRFFMEGGSGTNGCLSAATGSIGGGQIASALSRNFATIATDGGHDNAVNDNPDALGTVAFGLDPQARLDMGYNSYDQVTQAGKAAVARFYGRAADKSYFIGCSEGGREGMMLSQRFPSHYDGIVAGAPGYQLPKAGISGAWTTQSLAPAAVGLDAQGVPLINKSFSDADLHLLSQAILGTCDALDGLADGIVDNYRACQAAFDPATAANPANGQALQCVGAKTADCLSPVQVTAIKRAMAGPVNSAGTPLYNRWAWDAGMSGLSGTTYNQGWRSWWLGSFNSSANNAQRVSGFSARSWLVDFATPPEPMPMTQVAARMMKFDFDIDPLKIWATSGQFTQSSMDWHGATSTDLAAFRDRGGKMILYHCMSDAAFSALDTADYYERLGAAMPGAAGFARLFLVPGMNHCCGGPGTDRFDMLTPLVAWVERGEAPDQISAWSGTPGYFGVAARTRPLCPYPQIARYKGSGDINTEANFACAAPP | 0.16
